Data from the supplement of paper PMC10567573.

B1: KLHL14 (parent)
chain: NETGYLSSVECYNLETNEWRYVSS

Variants of: B1
Test: protein stability index of a GFP-peptide fusion (GPS, HEK-293T) (PSI 1-6); higher = more stable
Details: c terminus: a fixed tail appended
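Also: lentivirally expressed fusions sorted by FACS into six bins by GFP to DsRed ratio, PSI derived from sequencing read proportions per bin multiplied by bin number.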

Variant | protein stability index
NETGYLSSVEVYNLETNEWRYVSS | 2.76
NETGYLSSVETYNLETNEWRYVSS | 3.6
NETGYLSSVEMYNLETNEWRYVSS | 3.23
NETGYLSSVEEYNLETNEWRYVSS | 3.8
NETGYLSSVENYNLETNEWRYVSS | 4.18
NETGYLSSVELYNLETNEWRYVSS | 2.97
NETGYLSSVEGYNLETNEWRYVSS | 3.91
NETGYLSSVEQYNLETNEWRYVSS | 4.11
NETGYLSSVERYNLETNEWRYVSS | 3.73
NETGYLSSVEFYNLETNEWRYVSS | 2.83
NETGYLSSVEDYNLETNEWRYVSS | 4.58
NETGYLSSVEYYNLETNEWRYVSS | 3.06
NETGYLSSVEKYNLETNEWRYVSS | 3.58
NETGYLSSVEPYNLETNEWRYVSS | 3.92
NETGYLSSVEHYNLETNEWRYVSS | 4.09
NETGYLSSVEIYNLETNEWRYVSS | 2.55
NETGYLSSVEWYNLETNEWRYVSS | 4.03
NETGYLSSVESYNLETNEWRYVSS | 3.77
NETGYLSSVECKNLETNEWRYVSS | 3.97
NETGYLSSVECGNLETNEWRYVSS | 3.76
NETGYLSSVECPNLETNEWRYVSS | 4.05
NETGYLSSVECSNLETNEWRYVSS | 4
NETGYLSSVECQNLETNEWRYVSS | 3.84
NETGYLSSVECNNLETNEWRYVSS | 3.78

Variant | protein stability index
NETGYLSSVECENLETNEWRYVSS | 4.24
NETGYLSSVECDNLETNEWRYVSS | 4.55
NETGYLSSVECINLETNEWRYVSS | 2.95
NETGYLSSVECHNLETNEWRYVSS | 3.81
NETGYLSSVECMNLETNEWRYVSS | 3.5
NETGYLSSVECFNLETNEWRYVSS | 3.69
NETGYLSSVECRNLETNEWRYVSS | 3.72
NETGYLSSVECWNLETNEWRYVSS | 3.1
NETGYLSSVECVNLETNEWRYVSS | 4.09
NETGYLSSVECTNLETNEWRYVSS | 3.89
NETGYLSSVECLNLETNEWRYVSS | 3.67
NETGYLSSVECANLETNEWRYVSS | 3.94
NETGYLSSVECCNLETNEWRYVSS | 3.36
NETGYLSSVECYNLETCEWRYVSS | 2.84
NETGYLSSVECYNLETGEWRYVSS | 3.67
NETGYLSSVECYNLETFEWRYVSS | 2.9
NETGYLSSVECYNLETAEWRYVSS | 2.92
NETGYLSSVECYNLETHEWRYVSS | 3.31
NETGYLSSVECYNLETDEWRYVSS | 4.02
NETGYLSSVECYNLETIEWRYVSS | 2.31
NETGYLSSVECYNLETEEWRYVSS | 4.2
NETGYLQSVECYNLETNEWRYVSS | 3.86
NETGYLYSVECYNLETNEWRYVSS | 2.26
NETGYLVSVECYNLETNEWRYVSS | 2.45

Variant | protein stability index
NETGYLISVECYNLETNEWRYVSS | 2.46
NETGYLMSVECYNLETNEWRYVSS | 2.48
NETGYLRSVECYNLETNEWRYVSS | 3.64
NETGYLKSVECYNLETNEWRYVSS | 2.96
NETGYLPSVECYNLETNEWRYVSS | 3.88
NETGYLWSVECYNLETNEWRYVSS | 2.11
NETGYLTSVECYNLETNEWRYVSS | 3.45
NETGYLNSVECYNLETNEWRYVSS | 3.89
NETGYLLSVECYNLETNEWRYVSS | 2.24
NETGYLSSVVCYNLETNEWRYVSS | 1.71
NETGYLSSVCCYNLETNEWRYVSS | 2.46
NETGYLSSVMCYNLETNEWRYVSS | 1.86
NETGYLSSVRCYNLETNEWRYVSS | 3.23
NETGYLSSVLCYNLETNEWRYVSS | 1.45
NETGYLSSVQCYNLETNEWRYVSS | 3.42
NETGYLSSVWCYNLETNEWRYVSS | 1.75
NETGYLSSVKCYNLETNEWRYVSS | 3.05
NETGYLSSVPCYNLETNEWRYVSS | 2.83
NETGYLSSVFCYNLETNEWRYVSS | 1.64
NETGYLSSVACYNLETNEWRYVSS | 2.72
NETGYLSSVTCYNLETNEWRYVSS | 2.98
NETGYLSSVICYNLETNEWRYVSS | 1.69
NETGYLSSVGCYNLETNEWRYVSS | 2.72
NETGYLSSVHCYNLETNEWRYVSS | 2.22

Variant | protein stability index
NETGYLSSVSCYNLETNEWRYVSS | 1.94
NETGYLSSVDCYNLETNEWRYVSS | 3.18
NETGYLSSVNCYNLETNEWRYVSS | 2.48
NETGYLSSVYCYNLETNEWRYVSS | 1.58
NETGYLSSVECYTLETNEWRYVSS | 3.24
NETGYLSSVECYMLETNEWRYVSS | 2.21
NETGYLSSVECYRLETNEWRYVSS | 2.81
NETGYLSSVECYKLETNEWRYVSS | 2.56
NETGYLSSVECYILETNEWRYVSS | 1.52
NETGYLSSVECYWLETNEWRYVSS | 1.71
NETGYLSSVECYQLETNEWRYVSS | 2.8
NETGYLSSVECYELETNEWRYVSS | 2.79
NETGYLSSVECYPLETNEWRYVSS | 3.48
NETGYLSSVECYDLETNEWRYVSS | 3.83
NETGYLSSVECYGLETNEWRYVSS | 2.67
NETGYLSSVECYHLETNEWRYVSS | 2.73
NETGYLSSVECYVLETNEWRYVSS | 1.47
NETGYLSSVECYALETNEWRYVSS | 2.99
NETGYLSSVECYSLETNEWRYVSS | 2.69
NETGYLSSVECYCLETNEWRYVSS | 2.06
NETGYLSSVECYFLETNEWRYVSS | 1.64
NETGYLSSVECYLLETNEWRYVSS | 1.8
NETGYLSSVECYYLETNEWRYVSS | 2.63
NETGYLSSAECYNLETNEWRYVSS | 4.07

Variant | protein stability index
NETGYLSSGECYNLETNEWRYVSS | 3.88
NETGYLSSLECYNLETNEWRYVSS | 3.12
NETGYLSSSECYNLETNEWRYVSS | 3.87
NETGYLSSMECYNLETNEWRYVSS | 3.62
NETGYLSSFECYNLETNEWRYVSS | 2.67
NETGYLSSNECYNLETNEWRYVSS | 4.11
NETGYLSSPECYNLETNEWRYVSS | 3.84
NETGYLSSYECYNLETNEWRYVSS | 3.14
NETGYLSSIECYNLETNEWRYVSS | 3.16
NETGYLSSEECYNLETNEWRYVSS | 4
NETGYLSSTECYNLETNEWRYVSS | 3.4
NETGYLSSQECYNLETNEWRYVSS | 3.85
NETGYLSSCECYNLETNEWRYVSS | 3.35
NETGYLSSKECYNLETNEWRYVSS | 2.96
NETGYLSSDECYNLETNEWRYVSS | 4.39
NETGYLSSWECYNLETNEWRYVSS | 2.43
NETGYLSSRECYNLETNEWRYVSS | 3.41
NETGYLSSHECYNLETNEWRYVSS | 3.88
NETGYLSSVECYNPETNEWRYVSS | 4.16
NETGYLSSVECYNFETNEWRYVSS | 3.38
NETGYLSSVECYNAETNEWRYVSS | 3.96
NETGYLSSVECYNEETNEWRYVSS | 4.6
NETGYLSSVECYNNETNEWRYVSS | 4.24
NETGYLSSVECYNGETNEWRYVSS | 3.49

Variant | protein stability index
NETGYLSSVECYNWETNEWRYVSS | 3.11
NETGYLSSVECYNKETNEWRYVSS | 3.99
NETGYLSSVECYNTETNEWRYVSS | 3.62
NETGYLSSVECYNRETNEWRYVSS | 3.73
NETGYLSSVECYNVETNEWRYVSS | 3.41
NETGYLSSVECYNIETNEWRYVSS | 3.35
NETGYLSSVECYNMETNEWRYVSS | 3.46
NETGYLSSVECYNYETNEWRYVSS | 2.95
NETGYLSSVECYNCETNEWRYVSS | 3.2
NETGYLSSVECYNQETNEWRYVSS | 3.88
NETGYLSSVECYNHETNEWRYVSS | 3.74
NETGYLSSVECYNSETNEWRYVSS | 4.68
NETGYLSSVECYNDETNEWRYVSS | 4.15
NETGYLSHVECYNLETNEWRYVSS | 2.17
NETGYLSYVECYNLETNEWRYVSS | 1.67
NETGYLSGVECYNLETNEWRYVSS | 3.76
NETGYLSVVECYNLETNEWRYVSS | 2.77
NETGYLSFVECYNLETNEWRYVSS | 2.1
NETGYLSQVECYNLETNEWRYVSS | 3.29
NETGYLSTVECYNLETNEWRYVSS | 3.27
NETGYLSCVECYNLETNEWRYVSS | 2.55
NETGYLSDVECYNLETNEWRYVSS | 4.02
NETGYLSAVECYNLETNEWRYVSS | 3.34
NETGYLSIVECYNLETNEWRYVSS | 2.29

Variant | protein stability index
NETGYLSMVECYNLETNEWRYVSS | 2.73
NETGYLSNVECYNLETNEWRYVSS | 4.16
NETGYLSRVECYNLETNEWRYVSS | 2.35
NETGYLSEVECYNLETNEWRYVSS | 4.43
NETGYLSPVECYNLETNEWRYVSS | 4.21
NETGYLSKVECYNLETNEWRYVSS | 2.85
NETGYLSLVECYNLETNEWRYVSS | 2.77
NETGYLSSVECYNLMTNEWRYVSS | 2.63
NETGYLSSVECYNLPTNEWRYVSS | 2.54
NETGYLSSVECYNLFTNEWRYVSS | 1.8
NETGYLSSVECYNLTTNEWRYVSS | 2.02
NETGYLSSVECYNLDTNEWRYVSS | 3.41
NETGYLSSVECYNLYTNEWRYVSS | 2.15
NETGYLSSVECYNLLTNEWRYVSS | 2.61
NETGYLSSVECYNLVTNEWRYVSS | 2.25
NETGYLSSVECYNLITNEWRYVSS | 1.84
NETGYLSSVECYNLNTNEWRYVSS | 3.03
NETGYLSSVECYNLCTNEWRYVSS | 2.34
NETGYLSSVECYNLGTNEWRYVSS | 3.18
NETGYLSSVECYNLKTNEWRYVSS | 3.66
NETGYLSSVECYNLATNEWRYVSS | 1.94
NETGYLSSVECYNLWTNEWRYVSS | 2.13
NETGYLSSVECYNLHTNEWRYVSS | 2.42
NETGYLSSVECYNLSTNEWRYVSS | 2.08

Variant | protein stability index
NETGYLSSVECYNLRTNEWRYVSS | 2.39
NETGYLSSVECYNLQTNEWRYVSS | 2.58
NETGYLSSVECYNLEVNEWRYVSS | 3
NETGYLSSVECYNLEPNEWRYVSS | 2.89
NETGYLSSVECYNLEINEWRYVSS | 2.48
NETGYLSSVECYNLEENEWRYVSS | 3.83
NETGYLSSVECYNLENNEWRYVSS | 3.52
NETGYLSSVECYNLEKNEWRYVSS | 2.96
NETGYLSSVECYNLEMNEWRYVSS | 2.66
NETGYLSSVECYNLEYNEWRYVSS | 2.8
NETGYLSSVECYNLEFNEWRYVSS | 2.71
NETGYLSSVECYNLEGNEWRYVSS | 3.83
NETGYLSSVECYNLESNEWRYVSS | 3.8
NETGYLSSVECYNLEWNEWRYVSS | 2.05
NETGYLSSVECYNLECNEWRYVSS | 3.58
NETGYLSSVECYNLEDNEWRYVSS | 4.07
NETGYLSSVECYNLEQNEWRYVSS | 4.16
NETGYLSSVECYNLERNEWRYVSS | 3.17
NETGYLSSVECYNLELNEWRYVSS | 2.63
NETGYLSSVECYNLEHNEWRYVSS | 3.26
